This is an account of results in patent publication US20240158493A1 (MYTHIC THERAPEUTICS, published 2024).

A word on the IC50: it is the concentration that gives 50% inhibition. The low end stands for greater potency in that assay, the high end for weaker potency in that assay.

The test has as its target T1, LRRC15 on U-87 MG (LRRC15+) cells (human, UniProt Q8TF66 22-581).
T1 construct: Endogenous LRRC15 of U-87 MG cells (ATCC HTB-14); also called cell surface LRRC15
T1 sequence: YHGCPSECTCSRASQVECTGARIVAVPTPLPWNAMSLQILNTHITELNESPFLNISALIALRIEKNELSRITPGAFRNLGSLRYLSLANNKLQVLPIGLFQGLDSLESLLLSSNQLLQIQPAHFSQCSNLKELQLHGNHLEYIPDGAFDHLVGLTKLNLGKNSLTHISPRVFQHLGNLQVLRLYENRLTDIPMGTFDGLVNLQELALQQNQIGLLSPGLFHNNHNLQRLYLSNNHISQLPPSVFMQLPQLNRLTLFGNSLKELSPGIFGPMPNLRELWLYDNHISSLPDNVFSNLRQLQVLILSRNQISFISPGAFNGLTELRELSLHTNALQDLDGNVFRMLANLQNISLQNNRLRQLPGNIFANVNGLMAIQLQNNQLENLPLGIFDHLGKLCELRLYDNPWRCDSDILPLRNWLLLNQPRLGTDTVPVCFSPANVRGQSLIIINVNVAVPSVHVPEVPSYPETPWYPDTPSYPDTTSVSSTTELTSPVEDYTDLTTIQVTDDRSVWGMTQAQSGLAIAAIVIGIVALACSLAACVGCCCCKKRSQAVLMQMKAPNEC
Briefly: flow cytometry on U-87 MG (LRRC15+) cells, 60 nM to 1 pM. Here is the method:
FIGS. 40a-40b: Characterization of binding affinity for anti-LRRC15 mAbs. Anti-LRRC15 mAbs were assayed for their binding to U-87 MG (LRRC15+) cells.
Binding affinity of selected LRRC15 pH engineered antibody variants from Example 9 were measured on U-87 MG (LRRC15+) cells. 100,000 U-87 MG cells (ATCC HTB-14) were seeded per well in a 96 well deep well plate. Samrotamab and a pH engineered antibody variant were serially diluted at a 1:3 dilution in ice cold FC buffer (phosphate buffered saline (PBS), pH 7.4+2 mM ethylenediaminetetraacetic acid (EDTA)+2% (v/v) HI FBS). The plates were spun at 2,000 RPM for 2 minutes, the supernatant was removed, and 100 μL of diluted antibody was added to each well with final concentration ranging from 60 nM to 1 pM and incubated for 2 hours at 4° C. Post incubation, the cells were spun at 2000 rpm for 2 min and supernatant was discarded. Cells were washed twice with 500 μL of ice-cold FC buffer and resuspended with 100 μL of FC buffer. […] Post incubation, cells were washed with FC buffer and resuspended in 100 μL of FC buffer to read on a BD Accuri C6 flow cytometer. Binding affinity was measured as a dissociation constant KD by GraphPad Prism assuming Michaelis-Menten binding kinetics.
For orientation: In flow cytometry, cells or beads pass a laser one at a time.

B1: samrotamab (antibody, V domains shown)
VH: EVQLVQSGAEVKKPGASVKVSCKASGYKFSSYWIEWVKQAPGQGLEWIGEILPGSDTTNYNEKFKDRATFTSDTSINTAYMELSRLRSDDTAVYYCARDRGNYRAWFGYWGQGTLVTVSS
VL: DIQMTQSPSSLSASVGDRVTITCRASQDISNYLNWYQQKPGGAVKFLIYYTSRLHSGVPSRFSGSGSGTDYTLTISSLQPEDFATYFCQQGEALPWTFGGGTKVEIK
notes: IgG; the entries called heavy and light chain hold the variable domains only; also called MYT0963
With B1, the IC50 is 0.228 nM.

B2: MYT0971 (antibody, V domains shown)
VH: EVQLVQSGAEVKKPGASVKVSCKASGYKFSSYHIEWVKQAPGQGLEWIGEILPGSDTTNYNEKFKDRATFTSDTSINTAYMELSRLRSDDTAVYYCARDRGNYRAWFGYWGQGTLVTVSS
VL: DIQMTQSPSSLSASVGDRVTITCRASQDISNYLNWYQQKPGGAVKFLIYYTSRLHSGVPSRFSGSGSGTDYTLTISSLQPEDFATYFCQQGEALPWTFGGGTKVEIK
notes: IgG
B2 displayed an IC50 of 0.484 nM.
